The chains are these.
B1: H2-Kb / B15 (parent complex)
chain 1: QQQVRQSPQSLTVWEGETAILNCSYENSAFDYFPWYQQFPGEGPALLISILSVSDKKEDGRFTIFFNKREKKLSLHIADSQPGDSATYFCAASAASNNRLTLGKGTQVVVLP
chain 2: DSGVVQSPRHIIKEKGGRSVLTCIPISGHSNVVWYQQTLGKELKFLIQHYEKVERDKGFLPSRFSVQQFDDYHSEMNMSALELEDSAMYFCASSRRADAEQFFGPGTRLTVL
chain 3: not shown
chain 4: IQKTPQIQVYSRHPPENGKPNILNCYVTQFHPPHIEIQMLKNGKKIPKVEMSDMSFSKDWSFYILAHTEFTPTETDTYACRVKHDSMAEPKTVYWDRDM
chain 5: SIINFEKL

This test covers variants of B1. Nature of the test: % of reporter cells activated (NFAT-GFP), raw. Further: test concentration or dose not given here.
On to chain 5 I2Y, for which the ratio to parent stood at 0.764.
On to chain 5 I2L, for which the ratio to parent was 1.03.
The result for chain 5 I2V reads 1.
As for chain 5 I2H, the ratio to parent came to 0.9.
As to chain 5 I2D, the ratio to parent turned out to be 0.987.
To chain 5 I2C belongs 0.934; to chain 5 I2N, 0.974.
To chain 5 I2G belongs 0.917; to chain 5 I2R, 0.972; to chain 5 I2Q, 0.85.
For chain 5 I2S, the ratio to parent came out at 0.959.
To chain 5 S1W belongs 0.383.
The result for chain 5 S1L reads 0.456; that for chain 5 S1C, 0.577.
Regarding chain 5 S1G, the ratio to parent was 0.669.
In the case of chain 5 S1I, the ratio to parent is 0.115.
The result for chain 5 S1P reads 0.545; that for chain 5 S1V, 0.199; that for chain 5 S1K, 0.591.
The result for chain 5 E6S reads 0.221; that for chain 5 E6A, 0.205; that for chain 5 E6V, 0.0123.
Take chain 5 E6G: the ratio to parent is 0.491.
As for chain 5 E6Y, the ratio to parent stood at 0.15.
To chain 5 E6I belongs 0.00958.
Regarding chain 5 E6F, the ratio to parent was 0.13.
To chain 5 N4T belongs 0.01; to chain 5 N4M, 0.00683.
On to chain 5 N4D, for which the ratio to parent turned out to be 0.0675.
To chain 5 N4G belongs 0.184; to chain 5 N4Y, 0.151.
To chain 5 N4W belongs 0.0638.
To chain 5 N4L belongs 0.391; to chain 5 N4A, 0.0258.
On to chain 5 L8C, for which the ratio to parent worked out at 0.767.
Turning to chain 5 L8D, the ratio to parent came to 0.692.
Regarding chain 5 L8E, the ratio to parent was determined as 0.741.
For chain 5 L8V, the ratio to parent was determined as 0.901.
Turning to chain 5 L8M, the ratio to parent was determined as 0.955.
Take chain 5 L8P: the ratio to parent is 0.75.
To chain 5 L8S belongs 0.802; to chain 5 L8I, 0.934.
To chain 5 L8H belongs 0.905; to chain 5 L8A, 0.833.
To chain 5 L8N belongs 0.844; to chain 5 L8K, 0.801; to chain 5 L8F, 0.907.
For chain 5 K7T, the ratio to parent was 0.124.
On to chain 5 K7M, for which the ratio to parent was determined as 0.155.
Take chain 5 K7I: the ratio to parent came to 0.0863.
The result for chain 5 K7R reads 0.928; that for chain 5 K7S, 0.774; that for chain 5 K7E, 0.0434.
To chain 5 K7D belongs 0.117.
Turning to chain 5 K7H, the ratio to parent worked out at 0.291.
For the variant chain 5 K7V, the ratio to parent came to 0.454.
With chain 5 K7Y, the ratio to parent is 0.383.
To chain 5 I3W belongs 0.479.
Take chain 5 I3T: the ratio to parent was found to be 0.273.
To chain 5 I3Y belongs 0.0196; to chain 5 I3F, 0.0424; to chain 5 I3K, 0.71.
In the case of chain 5 I3C, the ratio to parent was 0.607.
On to chain 5 I3L, for which the ratio to parent turned out to be 0.812.
With chain 5 I3M, the ratio to parent came to 0.891.
As for chain 5 I3H, the ratio to parent turned out to be 0.491.
In the case of chain 5 F5A, the ratio to parent stood at 0.953.
Regarding chain 5 F5Y, the ratio to parent stood at 0.952.
For the variant chain 5 F5D, the ratio to parent came to 0.553.
The result for chain 5 F5W reads 0.981.
As for chain 5 F5T, the ratio to parent was 1.03.
The result for chain 5 F5V reads 0.999; that for chain 5 F5E, 0.531; that for chain 5 F5N, 0.673.
For chain 5 F5Q, the ratio to parent was 0.579.

The values are drawn from paper PMC11480844 (2024).
